Experimental findings from paper PMC8231982 are described below.

By Kd is commonly meant the equilibrium constant for the complex coming apart. The low end stands for tighter binding, the high end for weaker binding.

This assay concerns the target influenza hemagglutinin full length protein, A/New-York/55/04 (H3N2) (influenza A virus A/New-York/55/04 (H3N2)). Put plainly: SPR.

wild-type cyanovirin-N (WT CV–N), sequence (P81180 whole entry): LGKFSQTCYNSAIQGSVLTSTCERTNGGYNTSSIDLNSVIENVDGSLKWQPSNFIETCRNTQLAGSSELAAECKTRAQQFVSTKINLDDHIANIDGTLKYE

In turn, “wild-type cyanovirin-N (WT CV–N) (from UniProt P81180 1-101) (natural protein)” yielded a Kd of 5.7 nM.
